# In the Immune Epitope Database (IEDB):
# Assays:
# HLA-B*15:01 = test: IEDB peptide-MHC binding, purified MHC/competitive/fluorescence; filed as Kd, often an IC50 or EC50 that approximates it; ≥ and ≤ were set here for values at or beyond the usual limits of such assays
# HLA-A*01:01 = test: as above
# HLA-A*32:01 = test: IEDB peptide-MHC binding, purified MHC/competitive/radioactivity; filed as Kd, often an IC50 or EC50 that approximates it; ≥ and ≤ were set here for values at or beyond the usual limits of such assays
# HLA-B*57:01 = test: as above
# HLA-A*11:01 = test: IEDB peptide-MHC binding, purified MHC/competitive/fluorescence; ≥ and ≤ were set here for values at or beyond the usual limits of such assays; settings: source organism: Zaire ebolavirus
# HLA-A*03:01 [1] = test: as above; settings: source organism: Zaire ebolavirus
# HLA-B*58:01 = test: IEDB peptide-MHC binding, purified MHC/competitive/radioactivity; filed as Kd, often an IC50 or EC50 that approximates it; ≥ and ≤ were set here for values at or beyond the usual limits of such assays
# HLA-A*03:01 [2] = test: IEDB peptide-MHC binding, purified MHC/competitive/fluorescence; filed as Kd, often an IC50 or EC50 that approximates it; ≥ and ≤ were set here for values at or beyond the usual limits of such assays; settings: source organism: Salmonella enterica subsp. enterica serovar Typhi
# HLA-A*68:02 = test: IEDB peptide-MHC binding, purified MHC/competitive/radioactivity; filed as Kd, often an IC50 or EC50 that approximates it; ≥ and ≤ were set here for values at or beyond the usual limits of such assays; settings: source organism: Dengue virus 2 Jamaica/1409/1983
# HLA-B*53:01 = test: as above; settings: source organism: Dengue virus 1 Brazil/97-11/1997
# [3] = source organism: Escherichia coli str. K-12 substr. MG1655
# [4] = source organism: Dengue virus 2 Jamaica/1409/1983
# [5] = source organism: Escherichia coli 536
# [6] = source organism: Dengue virus 1 Brazil/97-11/1997
# [7] = source organism: Dengue virus 1 Singapore/S275/1990
sequence,measurement,setting,value
ELACAVPFY,Kd,HLA-B*15:01; [3],226 nM
same,Kd,HLA-A*01:01; [3],≥ 20000 nM
HTWTEQYKF,Kd,HLA-A*32:01; [4],151 nM
same,Kd,HLA-B*57:01; [4],2.37 nM
PVYRDHSEK,IC50,HLA-A*11:01,7120 nM
same,IC50,HLA-A*03:01 [1],7620 nM
ISRNTVKRY,Kd,HLA-B*15:01; [5],284 nM
same,Kd,HLA-A*01:01; [5],≥ 20000 nM
ERSWNTGFDW,Kd,HLA-B*58:01; source organism: Dengue virus 4 Philippines/H241/1956,683 nM
WMSNGTWNY,Kd,HLA-A*01:01; source organism: Human immunodeficiency virus 1,8.9 nM
GTTEVNGLY,Kd,HLA-A*01:01; source organism: Salmonella enterica subsp. enterica serovar Typhi,15.3 nM
same,Kd,HLA-A*03:01 [2],2160 nM
ESSPNPTIEA,Kd,HLA-A*68:02,52.3 nM
same,Kd,HLA-B*57:01; [4],2090 nM
GASTSQETW,Kd,HLA-B*53:01,623 nM
same,Kd,HLA-B*58:01; [6],2.93 nM
same,Kd,HLA-B*57:01; [6],10.2 nM
ATQVEQHHR,IC50,HLA-A*11:01,5220 nM
same,IC50,HLA-A*03:01 [1],≥ 90800 nM
TTFSLHYAW,Kd,HLA-A*32:01; [7],1.33 nM
same,Kd,HLA-B*58:01; [7],1.59 nM
same,Kd,HLA-B*57:01; [7],1.42 nM
